The results in this text go back to the supplement of paper PMC5998384.

The subject of series [1] is HeLa Kyoto. As to the kind of experiment: solubility change mitosis vs G1/S (difference of NP-40 vs SDS log2 ratios) (log2 ratio difference); higher = more soluble in mitosis.
In series [2] the test system is HeLa Kyoto. Description: solubility in G1/S (NP-40 vs SDS abundance) (log2 ratio); higher = more soluble. The conditions noted are these: cell cycle stage: G1/S.
The test system of series [3] is HeLa Kyoto. As to the kind of experiment: melting temperature (median over replicates), in situ; higher = more thermally stable.
Series [4] concerns HeLa Kyoto. As to the kind of experiment: thermal stability score vs G1/S (z-score of summed log2 fold changes over temperatures); higher = more thermally stable than in G1/S.
Where [5] appears, read: cell cycle stage: early G1 (4.5 h after nocodazole release).
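Wherever melting temperature (median over replicates), in situ is given: HeLa Kyoto cells synchronized by double thymidine or nocodazole block, proteins quantified by TMT10plex mass spectrometry, three independent biological replicates.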
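Wherever solubility change mitosis vs G1/S (difference of NP-40 vs SDS log2 ratios) is given: synchronized HeLa Kyoto cells (double thymidine block for G1/S, nocodazole release for mitosis), protein amounts in NP-40 versus SDS lysates quantified by mass spectrometry, three biological replicates.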
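Wherever solubility in G1/S (NP-40 vs SDS abundance) is given: HeLa Kyoto cells arrested at G1/S by double thymidine block, proteins quantified by TMT10plex mass spectrometry in mild NP-40 versus SDS extracts, three biological replicates.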
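Wherever thermal stability score vs G1/S (z-score of summed log2 fold changes over temperatures) is given: synchronized HeLa Kyoto cells, proteins quantified by TMT10plex mass spectrometry, three biological replicates, mitosis taken 0.5 h after nocodazole release, G1/S directly after double thymidine block.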

Regarding “MAHQTGIHATEELKEFFAKARAGSVRLIKVVIEDEQLVLGASQEPVGRWDQDYDRAVLPLLDAQQPCYLLYRLDSQNAQGFEWLFLAWSPDNSPVRLKMLYAATRATVKKEFGGGHIKDELFGTVKDDLSFAGYQKHLSSCAAPAPLTSAERELQQIRINEVKTEISVESKHQTLQGLAFPLQPEAQRALQQLKQKMVNYIQMKLDLERETIELVHTEPTDVAQLPSRVPRDAARYHFFLYKHTHEGDPLESVVFIYSMPGYKCSIKERMLYSSCKSRLLDSVEQDFHLEIAKKIEIGDGAELTAEFLYDEVHPKQHAFKQAFAKPKGPGGKRGHKRLIRGPGENGDDS [TWF2]”, the “solubility change mitosis (log2)” value with HeLa Kyoto [1] is -0.23. Besides, the “solubility in G1/S (log2)” value with HeLa Kyoto [2] came out at 0.275. Further, the results for the melting temperature with HeLa Kyoto [3] (cell cycle stage: G1/S) and with HeLa Kyoto [3] (cell cycle stage: mitosis) were 53.6 °C and 53 °C, respectively. Besides, the thermal stability score in the series on HeLa Kyoto [4] (setting [5]) was -0.101; in the series with HeLa Kyoto [4] (cell cycle stage: mitosis), -1.11.
On to “MAHTTKVNGSASGKAGDILSGDQDKEQKDPYFVETPYGYQLDLDFLKYVDDIQKGNTIKRLNIQKRRKPSVPCPEPRTTSGQQGIWTSTESLSSSNSDDNKQCPNFLIARSQVTSTPISKPPPPLETSLPFLTIPENRQLPPPSPQLPKHNLHVTKTLMETRRRLEQERATMQMTPGEFRRPRLASFGGMGTTSSLPSFVGSGNHNPAKHQLQNGYQGNGDYGSYAPAAPTTSSMGSSIRHSPLSSGISTPVTNVSPMHLQHIREQMAIALKRLKELEEQVRTIPVLQVKISVLQEEKRQLVSQLKNQRAASQINVCGVRKRSYSAGNASQLEQLSRARRSGGELYIDYEEEEMETVEQSTQRIKEFRQLTADMQALEQKIQDSSCEASSELRENGECRSVAVGAEENMNDIVVYHRGSRSCKDAAVGTLVEMRNCGVSVTEAMLGVMTEADKEIELQQQTIESLKEKIYRLEVQLRETTHDREMTKLKQELQAAGSRKKVDKATMAQPLVFSKVVEAVVQTRDQMVGSHMDLVDTCVGTSVETNSVGISCQPECKNKVVGPELPMNWWIVKERVEMHDRCAGRSVEMCDKSVSVEVSVCETGSNTEESVNDLTLLKTNLNLKEVRSIGCGDCSVDVTVCSPKECASRGVNTEAVSQVEAAVMAVPRTADQDTSTDLEQVHQFTNTETATLIESCTNTCLSTLDKQTSTQTVETRTVAVGEGRVKDINSSTKTRSIGVGTLLSGHSGFDRPSAVKTKESGVGQININDNYLVGLKMRTIACGPPQLTVGLTASRRSVGVGDDPVGESLENPQPQAPLGMMTGLDHYIERIQKLLAEQQTLLAENYSELAEAFGEPHSQMGSLNSQLISTLSSINSVMKSASTEELRNPDFQKTSLGKITGNYLGYTCKCGGLQSGSPLSSQTSQPEQEVGTSEGKPISSLDAFPTQEGTLSPVNLTDDQIAAGLYACTNNESTLKSIMKKKDGNKDSNGAKKNLQFVGINGGYETTSSDDSSSDESSSSESDDECDVIEYPLEEEEEEEDEDTRGMAEGHHAVNIEGLKSARVEDEMQVQECEPEKVEIRERYELSEKMLSACNLLKNTINDPKALTSKDMRFCLNTLQHEWFRVSSQKSAIPAMVGDYIAAFEAISPDVLRYVINLADGNGNTALHYSVSHSNFEIVKLLLDADVCNVDHQNKAGYTPIMLAALAAVEAEKDMRIVEELFGCGDVNAKASQAGQTALMLAVSHGRIDMVKGLLACGADVNIQDDEGSTALMCASEHGHVEIVKLLLAQPGCNGHLEDNDGSTALSIALEAGHKDIAVLLYAHVNFAKAQSPGTPRLGRKTSPGPTHRGSFD [KANK1]”, for which the “solubility change mitosis (log2)” value with HeLa Kyoto [1] was -0.0616. Besides, the “solubility in G1/S (log2)” value in the series on HeLa Kyoto [2] is -0.0496. For the same sequence, the values for the melting temperature with HeLa Kyoto [3] (cell cycle stage: G1/S) and in the series with HeLa Kyoto [3] (cell cycle stage: mitosis) were 49.3 °C and 49.4 °C, respectively. For the same sequence, the thermal stability score in the series with HeLa Kyoto [4] (setting [5]) is 0.397; in the series on HeLa Kyoto [4] (cell cycle stage: mitosis) it was 2.14.
For “MAIPGRQYGLILPKKTQQLHPVLQKPSVFGNDSDDDDETSVSESLQREAAKKQAMKQTKLEIQKALAEDATVYEYDSIYDEMQKKKEENNPKLLLGKDRKPKYIHNLLKAVEIRKKEQEKRMEKKIQREREMEKGEFDDKEAFVTSAYKKKLQERAEEEEREKRAAALEACLDVTKQKDLSGFYRHLLNQAVGEEEVPKCSFREARSGIKEEKSRGFSNEVSSKNRIPQEKCILQTDVKVEENPDADSDFDAKSSADDEIEETRVNCRREKVIETPENDFKHHRSQNHSRSPSEERGHSTRHHTKGSRTSRGHEKREDQHQQKQSRDQENHYTDRDYRKERDSHRHREASHRDSHWKRHEQEDKPRARDQRERSDRVWKREKDREKYSQREQERDRQQNDQNRPSEKGEKEEKSKAKEEHMKVRKERYENNDKYRDREKREVGVQSSERNQDRKESSPNSRAKDKFLDQERSNKMRNMAKDKERNQEKPSNSESSLGAKHRLTEEGQEKGKEQERPPEAVSKFAKRNNEETVMSARDRYLARQMARVNAKTYIEKEDD [NSRP1]”, in the series on HeLa Kyoto [1], the “solubility change mitosis (log2)” value is 0.242. Besides, the “solubility in G1/S (log2)” value in the series with HeLa Kyoto [2] is -0.433. The melting temperature in the series with HeLa Kyoto [3] (cell cycle stage: G1/S) was 55.3 °C; with HeLa Kyoto [3] (cell cycle stage: mitosis), 55.6 °C. The thermal stability score with HeLa Kyoto [4] (setting [5]) was 0.0783; with HeLa Kyoto [4] (cell cycle stage: mitosis), -1.16.
Consider “MAIRKKSTKSPPVLSHEFVLQNHADIVSCVAMVFLLGLMFEITAKASIIFVTLQYNVTLPATEEQATESVSLYYYGIKDLATVFFYMLVAIIIHAVIQEYMLDKINRRMHFSKTKHSKFNESGQLSAFYLFACVWGTFILISENYISDPTILWRAYPHNLMTFQMKFFYISQLAYWLHAFPELYFQKTKKEDIPRQLVYIGLYLFHIAGAYLLNLNHLGLVLLVLHYFVEFLFHISRLFYFSNEKYQKGFSLWAVLFVLGRLLTLILSVLTVGFGLARAENQKLDFSTGNFNVLAVRIAVLASICVTQAFMMWKFINFQLRRWREHSAFQAPAVKKKPTVTKGRSSKKGTENGVNGTLTSNVADSPRNKKEKSS [TRAM1]”, for which the “solubility change mitosis (log2)” value in the series on HeLa Kyoto [1] is -0.0373. In the series with HeLa Kyoto [2], the “solubility in G1/S (log2)” value was -0.0229. In addition, the melting temperature with HeLa Kyoto [3] (cell cycle stage: G1/S) turned out to be 52.2 °C; with HeLa Kyoto [3] (cell cycle stage: mitosis), 52.6 °C. Also, the values for the thermal stability score with HeLa Kyoto [4] (setting [5]) and in the series on HeLa Kyoto [4] (cell cycle stage: mitosis) were -0.164 and -0.999, respectively.
